In the experiment the target is T1, dopamine D2 receptor (mouse (endogenous in C57BL/6 brain slices)), P61168.
T1 chain: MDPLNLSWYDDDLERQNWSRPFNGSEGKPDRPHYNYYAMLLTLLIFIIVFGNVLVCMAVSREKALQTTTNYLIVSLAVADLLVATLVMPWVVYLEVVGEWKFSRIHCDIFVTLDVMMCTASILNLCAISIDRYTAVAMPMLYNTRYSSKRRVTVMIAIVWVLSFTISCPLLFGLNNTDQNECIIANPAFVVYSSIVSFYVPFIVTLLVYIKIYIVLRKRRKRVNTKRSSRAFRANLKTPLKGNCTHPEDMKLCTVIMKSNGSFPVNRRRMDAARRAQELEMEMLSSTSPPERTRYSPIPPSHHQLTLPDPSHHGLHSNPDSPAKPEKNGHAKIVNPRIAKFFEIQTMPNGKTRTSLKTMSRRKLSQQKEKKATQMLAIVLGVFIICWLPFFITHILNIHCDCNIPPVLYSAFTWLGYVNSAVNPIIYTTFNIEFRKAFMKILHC
The experiment can be described thus: proximity ligation. The note with it: remark: other sources report otherwise.

B1: dopamine D1 receptor, Q61616 1-446 (receptor)
chain: MAPNTSTMDETGLPVERDFSFRILTACFLSLLILSTLLGNTLVCAAVIRFRHLRSKVTNFFVISLAVSDLLVAVLVMPWKAVAEIAGFWPFGSFCNIWVAFDIMCSTASILNLCVISVDRYWAISSPFQYERKMTPKAAFILISVAWTLSVLISFIPVQLSWHKAKPTWPLDGNFTSLEDAEDDNCDTRLSRTYAISSSLISFYIPVAIMIVTYTSIYRIAQKQIRRISALERAAVHAKNCQTTTGNGNPVECSQSESSFKMSFKRETKVLKTLSVIMGVFVCCWLPFFISNCMVPFCGSEETQPFCIDSITFDVFVWFGWANSSLNPIIYAFNADFQKAFSTLLGCYRLCPTTNNAIETVSINNNGAVMFSSHHEPRGSISKDCNLVYLIPHAVGSSEDLKREEAGGIPKPLEKLSPALSVILDYDTDVSLEKIQPVTHSGQHST
B1: the PLA dots per µm^2 was 0.283 dots/µm^2.

Values taken from PMC4390438.
